Measured values published in patent publication US20050112063A1, “Methods for inhibiting vascular permeability” (priority 2002, published 2005).
Entries after “also recorded” stand apart in the source; their conditions may differ.

Key:
[1] = tested on: A2058 human melanoma-bearing mice; test: Miles assay on tumor-bearing mice (tumor vessel permeability); type: in vivo; details: 30 mg/kg/day for three days
Method: One of the problems with angiogenesis-dependent diseases is increased vessel permeability (due to high levels of VPF) which results in edema and loss of proteins. A decrease in vessel permeability is beneficial in those diseases. We have found, using the Miles assay ([…], et al., Cancer Res, 56:172-181 (1996)), that free and bound TNP-470 block permeability. Briefly, a dye, Evans Blue (1% in PBS), was injected i.v. to anesthesized mice. After 10 min, human recombinant VEGF165 (50 ng/50 μl) was injected intradermally into the back skin. Leakage of protein-bound dye was detected as blue spots on the underside of the back skin surrounding the injection site. After 20 min mice were euthanized. Then, the skin was excised, left in formamide for 5 days to be extracted and the solution read at 620 nm. Putative angiogenesis inhibitors such as free and conjugated TNP-470 were injected daily 3 days (30 mg/kg/day) prior to the VEGF challenge. The same was repeated on tumor-bearing mice to evaluate the effect of angiogenesis inhibitors on tumor vessel permeability.

[2] = tested on: Aortic arches from day-14 chick embryos; test: Chick aortic ring assay; type: cell-based
Method: Aortic arches were dissected from day-14 chick embryos and cut into cross-sectional fragments, everted to expose the endothelium, and explanted in Matrigel. When cultured in serum-free MCDB-131 medium, endothelial cells outgrow and three-dimensional vascular channel formation occurred within […]. Free and conjugated TNP-470 were added to the culture.

Mice [3] = test: Miles assay (induced vessel permeability); type: in vivo
Method: One of the problems with angiogenesis-dependent diseases is increased vessel permeability (due to high levels of VPF) which results in edema and loss of proteins. A decrease in vessel permeability is beneficial in those diseases. […] Briefly, a dye, Evans Blue (1% in PBS), was injected i.v. to anesthesized mice. After 10 min, human recombinant VEGF165 (50 ng/50 μl) was injected intradermally into the back skin. Leakage of protein-bound dye was detected as blue spots on the underside of the back skin surrounding the injection site. After 20 min mice were euthanized. Then, the skin was excised, left in formamide for 5 days to be extracted and the solution read at 620 nm. Putative angiogenesis inhibitors such as free and conjugated TNP-470 were injected daily 3 days (30 mg/kg/day) prior to the VEGF challenge. The same was repeated on tumor-bearing mice to evaluate the effect of angiogenesis inhibitors on tumor vessel permeability.

[4] = tested on: Bovine adrenal capillary endothelial cells; test: BCE proliferation assay; type: cell-based; details: challenged with bFGF, 72 h; data not shown
Method: Bovine adrenal capillary endothelial cells were seeded on gelatinized plates (15,000/well). Following 24 h incubation, cells were challenged with free and conjugated TNP-470, and bFGF (1 ng/ml) was added to the medium. Cells were counted after 72 h.

lungs = test: IL-2 induced pulmonary edema, relative weight of the lungs; type: in vivo; details: 3 days treatment, edema induced with IL-2 i.m. (FIG. 12)
[5] = tested on: Bovine capillary endothelial cells (BCE); test: Immunostaining of tight junction proteins (β-catenin, occludin, ZO-1); type: cell-based
Method: Bovine capillary endothelial cells (BCE) were cultured in the presence of 0.2, 0.5 and 2 μg/ml human endostatin for three days. The cells were fixed and immunostained with anti-β-catenin, occludin, and ZO-1 antibodies (Zymed Laboratories, CA). The staining was developed using FITC-conjugated secondary antibodies and visualized under fluorescent microscopy. Immunostaining for β-catenin marked the cell borders and was more intense when two cells contacted each other. […] There was no difference in β-catenin staining between 0.5 and 2.0 μg/ml endostatin. […] Similar results were obtained with ZO-1 immunostaining. […] This is the first documentation of the effects of endostatin on tight junctions that may explain, in part, the mechanism of its antiangiogenic activities. Similar experiments were performed in which BCE were incubated in the presence and absence of 0.5 μg/ml endostatin for 3 days followed by stimulation with PAF for 20 minutes. The cells were fixed and immunostained with anti-α-catenin, occludin, and ZO-1 antibodies (Zymed Laboratories, CA), as described above.

Nude mice = test: Evans Blue dye extravasation in skin after intradermal PAF; type: in vivo
Method: (§1) The antiangiogenic factor (endostatin) was injected intraperitoneally to FVB/NJ mice for 4 days. Immediately after the last injection, mice were anasthesized and received intravenous injection of 100 μl Evans Blue dye (1% in PBS). Subsequently, different amounts of VEGF165, VEGF121 or saline were injected intradermaly. After 20 minutes, mice were sacrificed and skin flap from the back was removed and photographed. Skin samples from the injection sites were excised and incubated in formamide for 5 days in order to extract the dye and O.D. was measured at 620 nm. […] Quantitative analysis of Evans Blue dye extravasation (FIG. 1) confirmed the lower skin capillary permeability of the antiangiogenic factor-treated mice and indicated the weak permeability-inducing effect of VEGF in these mice.
In order to test if the effects of the antiangiogenic factor (endostatin) on vascular permeability is VEGF-specific, we have tested the effects of intradermal injection of platelet-activating factor (PAF) in Nude mice that were previously injected with the antiangiogenic factor and in control mice, as described above. […] Quantitative analysis of Evans Blue dye extravasation (FIG. 2) confirmed the lower skin capillary permeability of the antiangiogenic factor-treated mice compared with control and the lack of PAF-induced hyperpermeability in these mice. […]

[6] = tested on: Bovine capillary endothelial cells (BCE); test: In vitro diffusion of FITC-dextran through endothelial cell monolayer (Transwells); type: cell-based
Method: The effects of the antiangiogenic factor (endostatin) on skin vessel permeability in vivo were tested in an in vitro diffusion model designed to mimic blood vessel permeability. Bovine capillary endothelial cells (BCE) were seeded in collagen coated inserts of “Transwells” and grown to confluence. The antiangiogenic factor was added every 24 hours. Four days later the inserts were washed with BCE culture medium and the following tracers and permeability regulators were added to the inserts. Half of the inserts received 5 mg/ml FITC-labeled dextran 10 kDa and the other half received 5 mg/ml FITC-labeled dextran 70 kDa. In addition, some inserts received 50 ng/ml VEGF165 or 100 nM PAF. Control inserts received BCE culture medium with fluorescent tracers only. The fluorescence in the lower wells was measured after 10, 20, 30, 45 and 60 minutes by transferring the inserts into new wells.
In order to follow the kinetic of the diffusion process, the flow of the tracer was calculated as fluorescent counts per minute (FIGS. 5 and 6). […] In contrast, the flow in control cells was constant and was lower than that observed in PAF and VEGF165-treated cells.

mice (SCID) = test: Duration of exposure: Alzet pump, skin vessel permeability with Evans Blue; type: in vivo
Method: In order to test if continuous exposure to the antiangiogenic factor (endostatin) is required to repress blood vessel permeability, mice (SCID) were anesthetized and “Alzet” pumps loaded with the antiangiogenic factor or saline were implanted intraperitoneally. The pumps release 1 μl the antiangiogenic factor per hour. Skin vessel permeability using Evans Blue dye was performed as described above. Saline and the antiangiogenic factor treated mice were examined 2, 3 and 4 days after pump implantation, as described above (FIG. 3). […] In both groups, PAF injection induced higher vessel permeability than saline injection. […] However, in both groups PAF injection induced higher vessel permeability than saline injection. […] Since the tumor vessels are continuously permeabilized and plasma proteins contained within the tumor support its vascularization the anti-permeability effect of the antiangiogenic factor offers a possible mechanism for its anti-tumor activity.

FVB/NJ mice = test: Evans Blue dye extravasation in skin after intradermal VEGF; type: in vivo
Method: as §1

Mice [7] = test: Swelling of lung tissue in mice injected with micro-encapsulated VEGF-producing cells; type: in vivo; details: VEGF producing cells together with endostatin producing cells, 5 days
Text: Dilation of the lung tissue may result in lung dysfunction and development of pulmonary hypertension. Mice injected with micro-encapsulated cells producing VEGF (approximately 0.5×10^6 cells per mouse) developed thickened lung parenchyma 5 days after injection. At a higher magnification we observed generation of several cell layers between the alveoli compared with one layer of cells in mice injected with micro-encapsulated control cells or with micro-encapsulated cells producing endostatin (Endost). […] Moreover, treatment with endostatin reduced the number of cell layers between the alveoli and the lungs of mice that were treated with endostatin appeared similar to control mice. Therefore, endostatin appears to block the swelling of lung tissue and may be used for treatment of pulmonary hypertension.

Humans = test: Histamine-induced wheal and flare test in skin; type: in vivo; details: intradermal histamine
Method: Antiangiogenic treatment has entered into clinical trials recently. Molecules that are tested in phase 1 and 2 clinical trials include endostatin, angiostatin, TNP-470, thalidomide, anti-VEGF antibodies, PTK787, SU-5416, SU-6668 and others. […] Mice that received endostatin for several days had lower diffusion of Evans blue from the skin capillaries in response to intradermal VEGF and PAF injection compared with normal mice. The existing test of histamine-induced wheal and flare in skin can be used in order to test bioactivity of endostatin and other antiangiogenic factors. Intradermal injection of histamine leads to the formation of local adema ([…]) due to blood vessel hyperpermiability. […] This test will serve as an early surrogate marker for the bioactivity of endostatin and other antiangiogenic factors and help to determine the treatment's efficiency in individual patients.

CO[C@@H]1[C@H](OC(=O)NC(=O)CCl)CC[C@]2(CO2)[C@H]1[C@@]1(C)O[C@@H]1CC=C(C)C [TNP-470]
tumor vessel permeability [1]: decreased | concentration that showed efficacy (reduced number and length of vascular sprouts) [2]: 50 pg/mL | VEGF, PAF and histamine-induced vascular leakage (Mice [3]; Miles assay, compared to control (FIGS. 8A-8E)): prevents | BCE cell growth [4]: inhibited | pulmonary edema (relative weight of the lungs) (lungs): reduces pulmonary edema

O=C1CCC(N2C(=O)c3ccccc3C2=O)C(=O)N1 (centres unmarked) [Thalidomide]
vessel permeability (Mice [3]; FIGS. 9A-9D): no effect

B1: endostatin (protein, UniProt P39060 1572-1754, looked up)
Endostatin: HSHRDFQPVLHLVALNSPLSGGMRGIRGADFQCFQQARAVGLAGTFRAFLSSRLQDLYSIVRRADRAAVPIVNLKDELLFPSWEALFSGSEGPLKPGARIFSFDGKDVLRHPTWPQKSVWHGSDPNGRRLTESYCETWRTEAPSATGQASSLLGGRLLGQSAASCHHAYIVLCIENSFMTASK
modifications: Endostatin
notes: antiangiogenic factor; human endostatin used on BCE cells
PAF-induced reduction of staining intensity of β-catenin, occludin and ZO-1 ([5]; 0.5 μg/ml for 3 days, then PAF for 20 minutes): not in endostatin-treated cells | ZO-1 immunostaining ([5]; 0.2-2.0 μg/ml, three days): Cells boundaries were only visible in the presence | β-catenin staining, 0.5 versus 2.0 μg/ml ([5]; three days): no difference | PAF-induced vascular permeability (Nude mice; intradermal PAF): repressed | vascular permeability (skin flaps, Evans Blue) (Nude mice; vs control): inhibits vascular permeability | flow of the tracer (fluorescent counts per minute) ([6]; 10 kDa and 70 kDa dextrans, vs control cells): significant reduced flow; also recorded: lower than that of control cells | course of tracer flow over time ([6]; 60 minutes period): constant flow | sum of fluorescent count over 60 minutes ([6]; 4 days pre-treatment, vs control, VEGF165-treated and PAF-treated cells, 10 kDa and 70 kDa dextran): significantly lower fluorescent counts | reduction in fluorescent counts, 70 kDa compared with 10 kDa dextran ([6]; pre-treated BCE cells): more pronounced in the diffusion of 70 kDa dextran | treatment time required to reduce skin vessel permeability (mice (SCID); Alzet pump intraperitoneally): at least 3 days | blood vessel permeability in response to PAF, saline vs treated mice (mice (SCID); day two after pump implantation): no significant difference | vessel permeability in saline treated mice compared with treated mice (mice (SCID); days three and four, saline and PAF injections): significantly higher vessel permeability than in the antiangiogenic factor treated mice | Evans Blue dye leakage (skin capillary permeability) (FVB/NJ mice; injected intraperitoneally for 4 days, vs control): overall lower dye leakage than the control | induction of hyperpermeability by VEGF injection (FVB/NJ mice; intradermal VEGF165 or VEGF121, 4 days treatment): minor induction of hyperpermeability | accumulation of extracellular matrix in lung tissue (Mice [7]): no accumulation of extracellular matrix | cell layers between the alveoli (Mice [7]): fewer cell layers | histamine-induced zone of edema (Humans): reduced zone of edema
